± gives the standard deviation.
Test: protein stability index of a GFP-peptide fusion (GPS, HEK-293T) (PSI 1-6); higher = more stable
[1] = treatment: DMSO, c terminus: a fixed tail appended
[2] = treatment: MLN4924 1 uM, 8 h, c terminus: a fixed tail appended
[3] = treatment: DMSO, c terminus: native
[4] = treatment: MLN4924 1 uM, 8 h, c terminus: native
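Note: 24-mer peptide tiles fused after GFP, lentivirally expressed, FACS-sorted into six equal bins by GFP/DsRed ratio, decoded by Illumina sequencing, PSI is the read-weighted mean bin number.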

Row | Sequence | protein stability index [1] | protein stability index [2] | protein stability index [3] | protein stability index [4]
1 | VKVIRDFTTNKCKGFGFVTMTNYD [ELAVL3] | 2.35 ± 0.47 | 2.15 ± 0.22 |  | 
2 | NIGDSSSGLIQTVFISSYMVLAPV [SPNS1] | 3.12 ± 0.32 | 2.67 ± 0.38 |  | 
3 | VISLLNEPNTFSPANVDASVMYRK [CDC34] | 2.92 ± 0.25 | 3.07 ± 0.21 |  | 
4 | CTLETTVHASGWNKILVPLVLLRQ [BCL2L13] | 2.61 ± 0.38 | 2.38 ± 0.43 |  | 
5 | MHVACQHGQENIVRILLRRGVDVS [RIPK4] | 2.29 ± 0.32 | 2.24 ± 0.45 |  | 
6 | LLKQGYNKTLLRLRLRKERVSDVQ [PKD2L1] | 2.35 ± 0.28 | 2.44 ± 0.27 |  | 
7 | AEMLRFGDRMFYRDWWNSTSFSNY [SOAT2] | 2.28 ± 0.52 | 2.02 ± 0.041 |  | 
8 | CTGITRLQRWCRAKHMGLEPPPEV [POLD4] | 2.49 ± 0.31 | 2.96 ± 0.31 |  | 
9 | LTKFLEEHPGGEEVLREQAGGDAT [CYB5A] | 5.44 ± 0.24 | 5.44 ± 0.26 |  | 
10 | TDKVGTEAAFHPIEEYMVHVEEHF [FUT8] | 4.07 ± 0.27 | 4.31 ± 0.33 |  | 
11 | DSSMILTVPGQALACGSNRFNKLG [NEK8] | 3.29 ± 0.17 | 3.2 ± 0.22 |  | 
12 | NTLVCNGLQNCVYPWDENHCKEKR [NETO1] | 4.21 ± 0.25 | 4.26 ± 0.3 |  | 
13 | ADSETPTIQKGSYTFVPWLLSFKR [TNFSF13B] | 2.52 ± 0.28 | 2.58 ± 0.26 |  | 
14 | PSTICFGQGAARGFKSNKKKTKQC [ZNF511] | 4.14 ± 0.83 | 3.84 ± 0.068 |  | 
15 | GYDGLNILNSVEKYDPHTGHWTNV [KLHL12] | 2.75 ± 0.42 | 3.05 ± 0.19 |  | 
16 | EEDNWDPELMEHTEAESEQEGSSG [TEX19] | 5.7 ± 0.26 | 5.65 ± 0.16 |  | 
17 | SFRELLTFFCTNATIHGAIRLVCS [SCNN1D] | 2.85 ± 0.36 | 2.99 ± 0.39 |  | 
18 | ESSLGSESEEEEEFYDADEETQMI [SLC22A15] | 5.05 ± 0.24 | 4.88 ± 0.3 |  | 
19 | ILVLTRPVTRNERHSYQVYRQPIP [NET1] | 2.33 ± 0.51 | 2.11 ± 0.38 |  | 
20 | MLIFSLALEEPEKMGLQERSETFL [DNAAF3] | 2.18 ± 0.32 | 2.38 ± 0.12 |  | 
21 | YISRKYFATRPGAIETAMEDLKGH [TPRG1] | 2.73 ± 0.41 | 2.81 ± 0.43 |  | 
22 | EMRQALQALLKENRLLQEENRTLQ [CBY2] | 2.53 ± 0.45 | 2.65 ± 0.41 |  | 

Row | Sequence | protein stability index [1] | protein stability index [2] | protein stability index [3] | protein stability index [4]
23 | DWGRTALHYAAASDMDRNKTILGN [ANKRD44] | 3.35 ± 0.32 | 3.35 ± 0.17 |  | 
24 | GVSEILLKTQMKMSLKCLAARAVR [FEM1B] | 2.65 ± 0.56 | 2.58 ± 0.26 |  | 
25 | VVNSHSLSLLGKLTISAAFNIVYI [SLC22A15] | 3.07 ± 0.43 | 3.09 ± 0.64 |  | 
26 | ELQRQKEAEKLERQLALPATEQAA [NOP53] | 5.14 ± 0.34 | 5.42 ± 0.31 |  | 
27 | PVACGSVLSEGSPLTEQEESSPSH [SRPK2] | 5.52 ± 0.17 | 5.51 ± 0.17 |  | 
28 | KDAPCYESDTDIYETVAAATSEST [DRICH1] | 5.4 ± 0.15 | 5.38 ± 0.1 |  | 
29 | DPSGKGKGKAGRVDLVDESGYVSG [TPPP] | 5.1 ± 0.42 | 5.27 ± 0.16 |  | 
30 | FLDWLRTNPDLIIVCAQSSQSLWN [SMG5] | 2.5 ± 0.41 | 2.36 ± 0.41 |  | 
31 | FRQYCGAACTCHVRNPLSACSIM [RNF208] |  |  | 2.09 ± 0.19 | 2.18 ± 0.2
32 | ADQTVLTEDEKKELENLAAMDLEL [CHGB] | 5.6 ± 0.28 | 5.61 ± 0.16 |  | 
33 | IHAYNLGTNAWEEIATKPHEKIGF [KLHDC10] | 2.48 ± 0.15 | 2.57 ± 0.54 |  | 
34 | VEYEERESEFDIEDEDKSEPEQTG [RBBP5] | 5.64 ± 0.23 | 5.54 ± 0.32 |  | 
35 | CLRRCKRTLPAFQVPYPPRQLLRD [P3H4] | 2.16 ± 0.24 | 2.27 ± 0.24 |  | 
36 | EEVVYDLSIRGFNKETAAACVEK [TSN] |  |  | 4.39 ± 0.14 | 4.38 ± 0.27
37 | PNKDMVVQLIDDFKISGMNGIHVC [SRPK2] | 2.38 ± 0.27 | 2.35 ± 0.25 |  | 
38 | EKEKHVNQLQTKVAVLEQEIKDKD [SASS6] | 5.38 ± 0.12 | 5.53 ± 0.14 |  | 
39 | NLFFAWIKIFKYISFNKTMTQLSS [PKD2L1] | 3.05 ± 0.49 | 2.99 ± 0.44 |  | 
40 | GQLRVFGAGLLSSISELKHALSGH [TPH1] | 2.24 ± 0.27 | 2.13 ± 0.19 |  | 
41 | GCALTTFSVLEGEKNNHRAKDLRA [SOAT1] | 3.49 ± 0.52 | 3.83 ± 0.63 |  | 
42 | VSPGSPPPPLPNHKYNTTSTSYSP [PLAGL1] | 4.27 ± 0.15 | 4.21 ± 0.27 |  | 
43 | DYLCISFEYSTIKCRDLSALMHEL [BTBD10] | 2.5 ± 1.6 | 2.73 ± 1 |  | 
44 | TLTREQTERLSHQITSRVVSAATQ [RTN2] | 3.68 ± 0.19 | 3.75 ± 0.13 |  | 

Row | Sequence | protein stability index [1] | protein stability index [2] | protein stability index [3] | protein stability index [4]
45 | ISSGVVSIWAQNQVENWSAFAPDF [RBBP5] | 2.44 ± 0.3 | 2.4 ± 0.25 |  | 
46 | YIQSRADTMQNIESTIVELGSIFQ [STX5] | 2.33 ± 0.2 | 2.62 ± 0.29 |  | 
47 | LVITDFFGHLINGAIAVFVYASDK [PTGFR] | 3.39 ± 0.23 | 3.56 ± 0.49 |  | 
48 | EEGDEQQRLLNTPRRKKLKSTSKY [GMCL1] | 4.75 ± 0.12 | 4.9 ± 0.39 |  | 
49 | NFADEDEAQAFRALVQEKIQKRNQ [WAS] | 4.55 ± 0.29 | 4.62 ± 0.3 |  | 
50 | YERPNVETIKCVVVGDNAVGKTRL [RHOBTB1] | 3.71 ± 0.23 | 3.86 ± 0.21 |  | 
51 | STSAVPNLFVPLNTNPKEVQEMRN [ADD1] | 4.53 ± 0.21 | 4.43 ± 0.28 |  | 
52 | NYMNAAMVHINRALKLIIRLFLVE [RTN3] | 2.24 ± 0.21 | 2.27 ± 0.26 |  | 
53 | LPHLQDSFVDKLLDLMPRLMTSKP [INTS4] | 2.16 ± 0.2 | 2.15 ± 0.24 |  | 
54 | DAMQLNDKWQGLCWPMMDFLRCVT [CMTM3] | 2.22 ± 0.38 | 2.26 ± 0.14 |  | 
55 | RNSGIIGGKYLGRTKVVKPYSTVD [EFHC1] | 2.91 ± 0.26 | 3.46 ± 0.17 |  | 
56 | YVFFEKDFGDMHSYVRSRKRLREE [TRIB1] | 2.46 ± 0.59 | 2.66 ± 0.93 |  | 
57 | LLLNNANPNLSNRRGSTPLHMAVE [RIPK4] | 2.41 ± 0.25 | 2.73 ± 0.43 |  | 
58 | AVLASCSQYFRSLFSSHPPLGGGV [KLHL14] | 2.4 ± 0.37 | 2.22 ± 0.22 |  | 
59 | QEMVVSSLVIGALLASLTGGVLID [SLC2A12] | 3.61 ± 0.39 | 3.45 ± 0.73 |  | 
60 | EGPMEEEEAQPMAAPEGKRSLANG [EID1] | 5.66 ± 0.25 | 5.58 ± 0.21 |  | 
61 | ERDTLSIRESRLFGAVVRWAEAEC [BTBD1] | 3.13 ± 0.21 | 3.12 ± 0.34 |  | 
62 | AFFASHQCSNRIGSMKIKSSWDID [FBXO34] | 2.46 ± 0.15 | 2.42 ± 0.17 |  | 
63 | LKQNFSKSWHDMQTTTAYKKTHET [TPD52L1] | 3.6 ± 0.25 | 3.96 ± 0.24 |  | 
64 | QRRHGWNPKDCSENIEVKEGGLYF [SPSB2] | 3.45 ± 0.31 | 3.76 ± 0.46 |  | 
65 | EPTETLLSEKEINAREESLVEELS [BCL2L13] | 5.46 ± 0.12 | 5.55 ± 0.26 |  | 
